T1: human PAC1 receptor (human, UniProt P41586 21-468)
T1 sequence: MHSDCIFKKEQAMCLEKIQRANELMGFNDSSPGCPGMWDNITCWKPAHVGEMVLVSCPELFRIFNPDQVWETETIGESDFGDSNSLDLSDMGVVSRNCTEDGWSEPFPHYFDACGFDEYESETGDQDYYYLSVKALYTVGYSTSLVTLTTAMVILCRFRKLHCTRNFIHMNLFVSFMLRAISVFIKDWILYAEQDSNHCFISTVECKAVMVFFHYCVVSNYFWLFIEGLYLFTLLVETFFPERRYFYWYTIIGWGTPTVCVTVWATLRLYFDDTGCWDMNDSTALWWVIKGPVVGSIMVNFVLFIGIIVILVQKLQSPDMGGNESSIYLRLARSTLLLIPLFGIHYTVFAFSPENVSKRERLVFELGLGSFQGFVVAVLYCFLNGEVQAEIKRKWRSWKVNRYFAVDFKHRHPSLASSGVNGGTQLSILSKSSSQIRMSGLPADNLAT

B1: iPS:327721 (bispecific antibody, human IgG1, kappa, lambda, N297G)
light 1: EIVLTQSPATLSLSPGERATLSCRASQSVGRSLHWYQQKPGQAPRLLIKYASQSLSGIPARFSGSGSGTDFTLTISSLEPEDFAVYYCHQSSRLPFTFGPGTKVDIKRTVAAPSVFIFPPSDEQLKSGTASVVCLLNNFYPREAKVQWKVDNALQSGNSQESVTEQDSKDSTYSLESTLTLSKADYEKHKVYACEVTHQGLSSPVTKSFNRGEC
heavy 1: not shown
light 2: QSVLTQPPSVSAAPGQKVTISCSGSSSNIGNNYVSWYQQLPGTAPKLLIYDNNKRPSGIPDRFSGSKSGTSATLAITGLQTGDEADYYCGTWDSRLSAVVFGGGTKLTVLGQPKANPTVTLFPPSSEELQANKATLVCLISDFYPGAVTVAWKADGSPVKAGVETTKPSKQSNNKYAAKSYLSLTPEQWKSHRSYSCQVTHEGSTVEKTVAPTECS
heavy 2: QVQLVESGGGVVQPGRSLRLSCAASGFTFSSFGMHWVRQAPGKGLEWVAVISFDGSIKYSVDSVKGRFTISRDNSKNTLFLQMNSLRAEDTAVYYCARDRLNYYDSSGYYHYKYYGMAVWGQGTTVTVSSASTKGPSVFPLAPSSKSTSGGTAALGCLVKDYFPEPVTVSWNSGALTSGVHTFPAVLQSSGLYSLESVVTVPSSSLGTQTYICNVNHKPSNTKVDKKVEPKSCDKTHTCPPCPAPELLGGPSVFLFPPKPKDTLMISRTPEVTCVVVDVSHEDPEVKFNWYVDGVEVHNAKTKPCEEQYGSTYRCVSVLTVLHQDWLNGKEYKCKVSNKALPAPIEKTISKAKGQPREPQVYTLPPSRKEMTKNQVSLTCLVKGFYPSDIAVEWESNGQPENNYKTTPPVLKSDGSFFLYSKLTVDKSRWQQGNVFSCSVMHEALHNHYTQKSLSLSPGK
B2: iPS:327734 (bispecific antibody, human IgG1, kappa, lambda, N297G)
light 1: EIVLTQSPATLSLSPGERATLSCRASQSVGRSLHWYQQKPGQAPRLLIKYASQSLSGIPARFSGSGSGTDFTLTISSLEPEDFAVYYCHQSSRLPFTFGPGTKVDIKRTVAAPSVFIFPPSDEQLKSGTASVVCLLNNFYPREAKVQWKVDNALQSGNSQESVTEQDSKDSTYSLESTLTLSKADYEKHKVYACEVTHQGLSSPVTKSFNRGEC
heavy 1: not shown
light 2: QSVLTQPPSVSAAPGQKVTISCSGSSSNIGNNYVSWYQQLPGTAPKLLIYDNNKRPSGIPDRFSGSKSGTSATLGITGLQTGDEADYYCGTWDSRLSAVVFGGGTKLTVLGQPKANPTVTLFPPSSEELQANKATLVCLISDFYPGAVTVAWKADGSPVKAGVETTKPSKQSNNKYAAKSYLSLTPEQWKSHRSYSCQVTHEGSTVEKTVAPTECS
heavy 2: QVQLVESGGGVVQPGRSLRLSCAASGFTFSSFGMHWVRQAPGKGLEWVAVISFDGSIKYSVDSVKGRFTISRDNSKNTLFLQMNSLRAEDTAVYYCARDRLNYYESSGYYHYKYYGMAVWGQGTTVTVSSASTKGPSVFPLAPSSKSTSGGTAALGCLVKDYFPEPVTVSWNSGALTSGVHTFPAVLQSSGLYSLESVVTVPSSSLGTQTYICNVNHKPSNTKVDKKVEPKSCDKTHTCPPCPAPELLGGPSVFLFPPKPKDTLMISRTPEVTCVVVDVSHEDPEVKFNWYVDGVEVHNAKTKPCEEQYGSTYRCVSVLTVLHQDWLNGKEYKCKVSNKALPAPIEKTISKAKGQPREPQVYTLPPSRKEMTKNQVSLTCLVKGFYPSDIAVEWESNGQPENNYKTTPPVLKSDGSFFLYSKLTVDKSRWQQGNVFSCSVMHEALHNHYTQKSLSLSPGK
B3: iPS:327732 (bispecific antibody, human IgG1, kappa, lambda, N297G)
light 1: not shown
heavy 1: not shown
light 2: QSVLTQPPSVSAAPGQKVTISCSGSSSNIGNNYVSWYQQLPGTAPKLLIYDNNKRPSGIPDRFSGSKSGTSATLGITGLQTGDEADYYCGTWDSRLSAVVFGGGTKLTVLGQPKANPTVTLFPPSSEELQANKATLVCLISDFYPGAVTVAWKADGSPVKAGVETTKPSKQSNNKYAAKSYLSLTPEQWKSHRSYSCQVTHEGSTVEKTVAPTECS
heavy 2: QVQLVESGGGVVQPGRSLRLSCAASGFTFSSFGMHWVRQAPGKGLEWVAVISFDGSIKYSVDSVKGRFTISRDNSKNTLFLQMNSLRAEDTAVYYCARDRLNYYESSGYYHYKYYGMAVWGQGTTVTVSSASTKGPSVFPLAPSSKSTSGGTAALGCLVKDYFPEPVTVSWNSGALTSGVHTFPAVLQSSGLYSLESVVTVPSSSLGTQTYICNVNHKPSNTKVDKKVEPKSCDKTHTCPPCPAPELLGGPSVFLFPPKPKDTLMISRTPEVTCVVVDVSHEDPEVKFNWYVDGVEVHNAKTKPCEEQYGSTYRCVSVLTVLHQDWLNGKEYKCKVSNKALPAPIEKTISKAKGQPREPQVYTLPPSRKEMTKNQVSLTCLVKGFYPSDIAVEWESNGQPENNYKTTPPVLKSDGSFFLYSKLTVDKSRWQQGNVFSCSVMHEALHNHYTQKSLSLSPGK
B4: iPS:327722 (bispecific antibody, human IgG1, kappa, lambda, N297G)
light 1: DIQMTQSPSSLSASVGDRITITCRASQSISRYLNWYQQKPGKAPKLLIYAASSLQSGIPSRFSGSGSGTDFTLTINSLQPEDFATYFCQQSYSPPFTFGEGTKVDIKRTVAAPSVFIFPPSDEQLKSGTASVVCLLNNFYPREAKVQWKVDNALQSGNSQESVTEQDSKDSTYSLESTLTLSKADYEKHKVYACEVTHQGLSSPVTKSFNRGEC
heavy 1: not shown
light 2: QSVLTQPPSVSAAPGQKVTISCSGSSSNIGNNYVSWYQQLPGTAPKLLIYDNNKRPSGIPDRFSGSKSGTSATLAITGLQTGDEADYYCGTWDSRLSAVVFGKGTKLTVLGQPKANPTVTLFPPSSEELQANKATLVCLISDFYPGAVTVAWKADGSPVKAGVETTKPSKQSNNKYAAKSYLSLTPEQWKSHRSYSCQVTHEGSTVEKTVAPTECS
heavy 2: QVQLVESGGGVVQPGRSLRLSCAASGFTFSSFGMHWVRQAPGKELEWVAVISFDGSIKYSVDSVKGRFTISRDNSKNTLFLQMNSLRAEDTAVYYCARDRLNYYDSSGYYHYKYYGMAVWGQGTTVTVSSASTKGPSVFPLAPSSKSTSGGTAALGCLVKDYFPEPVTVSWNSGALTSGVHTFPAVLQSSGLYSLESVVTVPSSSLGTQTYICNVNHKPSNTKVDKKVEPKSCDKTHTCPPCPAPELLGGPSVFLFPPKPKDTLMISRTPEVTCVVVDVSHEDPEVKFNWYVDGVEVHNAKTKPCEEQYGSTYRCVSVLTVLHQDWLNGKEYKCKVSNKALPAPIEKTISKAKGQPREPQVYTLPPSRKEMTKNQVSLTCLVKGFYPSDIAVEWESNGQPENNYKTTPPVLKSDGSFFLYSKLTVDKSRWQQGNVFSCSVMHEALHNHYTQKSLSLSPGK
B5: iPS:327733 (bispecific antibody, human IgG1, kappa, lambda, N297G)
light 1: DIQLTQSPSFLSASVGDRVTITCRASQSIGRSLHWYQQKPGKAPKLLIKYASQSLSGVPSRFSGSGSGTEFTLTISSLQPEDFATYYCHQSSRLPFTFGPGTKVDIKRTVAAPSVFIFPPSDEQLKSGTASVVCLLNNFYPREAKVQWKVDNALQSGNSQESVTEQDSKDSTYSLESTLTLSKADYEKHKVYACEVTHQGLSSPVTKSFNRGEC
heavy 1: not shown
light 2: QSVLTQPPSVSAAPGQKVTISCSGSSSNIGNNYVSWYQQLPGTAPKLLIYDNNKRPSGIPDRFSGSKSGTSATLGITGLQTGDEADYYCGTWDSRLSAVVFGGGTKLTVLGQPKANPTVTLFPPSSEELQANKATLVCLISDFYPGAVTVAWKADGSPVKAGVETTKPSKQSNNKYAAKSYLSLTPEQWKSHRSYSCQVTHEGSTVEKTVAPTECS
heavy 2: QVQLVESGGGVVQPGRSLRLSCAASGFTFSSFGMHWVRQAPGKGLEWVAVISFDGSIKYSVDSVKGRFTISRDNSKNTLFLQMNSLRAEDTAVYYCARDRLNYYESSGYYHYKYYGMAVWGQGTTVTVSSASTKGPSVFPLAPSSKSTSGGTAALGCLVKDYFPEPVTVSWNSGALTSGVHTFPAVLQSSGLYSLESVVTVPSSSLGTQTYICNVNHKPSNTKVDKKVEPKSCDKTHTCPPCPAPELLGGPSVFLFPPKPKDTLMISRTPEVTCVVVDVSHEDPEVKFNWYVDGVEVHNAKTKPCEEQYGSTYRCVSVLTVLHQDWLNGKEYKCKVSNKALPAPIEKTISKAKGQPREPQVYTLPPSRKEMTKNQVSLTCLVKGFYPSDIAVEWESNGQPENNYKTTPPVLKSDGSFFLYSKLTVDKSRWQQGNVFSCSVMHEALHNHYTQKSLSLSPGK
B6: iPS:327724 (bispecific antibody, human IgG1, kappa, lambda, N297G)
light 1: not shown
heavy 1: not shown
light 2: QSVLTQPPSVSAAPGQKVTISCSGSSSNIGNNYVSWYQQLPGTAPKLLIYDNNKRPSGIPDRFSGSKSGTSATLAITGLQTGDEADYYCGTWDSRLSAVVFGKGTKLTVLGQPKANPTVTLFPPSSEELQANKATLVCLISDFYPGAVTVAWKADGSPVKAGVETTKPSKQSNNKYAAKSYLSLTPEQWKSHRSYSCQVTHEGSTVEKTVAPTECS
heavy 2: QVQLVESGGGVVQPGRSLRLSCAASGFTFSSFGMHWVRQAPGKELEWVAVISFDGSIKYSVDSVKGRFTISRDNSKNTLFLQMNSLRAEDTAVYYCARDRLNYYDSSGYYHYKYYGMAVWGQGTTVTVSSASTKGPSVFPLAPSSKSTSGGTAALGCLVKDYFPEPVTVSWNSGALTSGVHTFPAVLQSSGLYSLESVVTVPSSSLGTQTYICNVNHKPSNTKVDKKVEPKSCDKTHTCPPCPAPELLGGPSVFLFPPKPKDTLMISRTPEVTCVVVDVSHEDPEVKFNWYVDGVEVHNAKTKPCEEQYGSTYRCVSVLTVLHQDWLNGKEYKCKVSNKALPAPIEKTISKAKGQPREPQVYTLPPSRKEMTKNQVSLTCLVKGFYPSDIAVEWESNGQPENNYKTTPPVLKSDGSFFLYSKLTVDKSRWQQGNVFSCSVMHEALHNHYTQKSLSLSPGK

Experiments:
human PAC1 receptor = molecular target: T1, human PAC1 receptor; test: cell-based or functional assay
human CGRP receptor = human CGRP receptor (human, UniProt Q16602 23-461; O60894 27-148); test: cell-based or functional assay
human CGRP receptor, sequence (Q16602 23-461 limits assumed, chain 1 of 2): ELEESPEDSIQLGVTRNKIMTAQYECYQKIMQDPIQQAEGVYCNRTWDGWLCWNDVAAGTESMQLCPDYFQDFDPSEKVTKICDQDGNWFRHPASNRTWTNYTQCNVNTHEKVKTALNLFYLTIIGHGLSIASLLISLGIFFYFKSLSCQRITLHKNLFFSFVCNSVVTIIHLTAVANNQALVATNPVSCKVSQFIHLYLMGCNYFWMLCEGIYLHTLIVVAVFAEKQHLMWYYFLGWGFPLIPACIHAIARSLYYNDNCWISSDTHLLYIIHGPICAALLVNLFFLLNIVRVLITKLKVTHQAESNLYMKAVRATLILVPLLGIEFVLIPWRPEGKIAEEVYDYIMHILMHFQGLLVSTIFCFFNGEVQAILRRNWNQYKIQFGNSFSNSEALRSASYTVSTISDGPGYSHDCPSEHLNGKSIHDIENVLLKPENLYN
human CGRP receptor, sequence (O60894 27-148 limits assumed, chain 2 of 2): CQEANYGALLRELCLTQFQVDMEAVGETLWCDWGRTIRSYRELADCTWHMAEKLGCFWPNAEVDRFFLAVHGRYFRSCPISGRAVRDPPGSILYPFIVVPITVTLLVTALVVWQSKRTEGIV

Binder | % inhibition of human PAC1 (human PAC1 receptor) [%] | % inhibition of human CGRPR (human CGRP receptor) [%]
B1 | 99 | 81
B2 | 99 | 82
B3 | 56 | 69
B4 | 38 | 82
B5 | 66 | 84
B6 | 33 | 80

Source: patent US20170306033A1 (Amgen, published 2017)
